Reference: patent US20250042957A1 (Molecular Partners, published 2025)

B1: VEGF165 (ligand, UniProt P15692-4 27-191, looked up)
chain: APMAEGGGQNHHEVVKFMDVYQRSYCHPIETLVDIFQEYPDEIEYIFKPSCVPLMRCGGCCNDEGLECVPTEESNITMQIMRIKPHQGQHIGEMSFLQHNKCECRPKKDRARQENPCGPCSERRKHLFVQDPQTCKCSCKNTDSRCKARQLELNERTCRCDKPRR
modifications: biotinylated in the ELISA of Example 4 (site not stated)
notes: also called biotinylated VEGF165; soluble VEGF

Key:
[1] = molecular target: T1, Switchdrug DARPin 15-3; assay: HTRF: 20 nM Switchdrug DARPin with titrated soluble VEGF; read-out is the construct's binding to 1 nM biotinylated scCD3εγ (release of the α-CD3 binder)
T1 construct: also called 2-in-1 DARPin15 in Format 3
T1 chain: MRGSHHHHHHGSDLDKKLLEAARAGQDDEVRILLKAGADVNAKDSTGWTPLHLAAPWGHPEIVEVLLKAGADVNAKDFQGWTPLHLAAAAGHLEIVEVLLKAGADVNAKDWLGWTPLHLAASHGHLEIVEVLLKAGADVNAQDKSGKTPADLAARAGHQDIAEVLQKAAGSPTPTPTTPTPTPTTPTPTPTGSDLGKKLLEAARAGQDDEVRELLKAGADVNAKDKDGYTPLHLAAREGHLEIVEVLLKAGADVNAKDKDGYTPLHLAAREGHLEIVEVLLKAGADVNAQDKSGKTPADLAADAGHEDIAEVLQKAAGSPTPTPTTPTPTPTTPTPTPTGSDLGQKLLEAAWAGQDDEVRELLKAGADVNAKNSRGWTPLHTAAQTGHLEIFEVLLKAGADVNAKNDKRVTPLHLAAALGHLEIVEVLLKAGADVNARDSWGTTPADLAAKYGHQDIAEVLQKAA
Experimental: (§1) Said Switchdrug DARPins (20 nM final concentration) were mixed with 1 nM (final concentration) scCD3εγ, 1:200 (final concentration) of anti-FLAG-d2 HTRF antibody-FRET acceptor conjugate (Cisbio) and 1:200 (final concentration) of anti-strep-Tb antibody FRET donor conjugate (Cisbio, France). […] The mix was added to a well of a 384-well plate and incubated for 90 minutes.

[2] = molecular target: T2, Switchdrug DARPin 17-3; assay: as above
T2 construct: also called 2-in-1 DARPin17 in Format 3
T2 chain: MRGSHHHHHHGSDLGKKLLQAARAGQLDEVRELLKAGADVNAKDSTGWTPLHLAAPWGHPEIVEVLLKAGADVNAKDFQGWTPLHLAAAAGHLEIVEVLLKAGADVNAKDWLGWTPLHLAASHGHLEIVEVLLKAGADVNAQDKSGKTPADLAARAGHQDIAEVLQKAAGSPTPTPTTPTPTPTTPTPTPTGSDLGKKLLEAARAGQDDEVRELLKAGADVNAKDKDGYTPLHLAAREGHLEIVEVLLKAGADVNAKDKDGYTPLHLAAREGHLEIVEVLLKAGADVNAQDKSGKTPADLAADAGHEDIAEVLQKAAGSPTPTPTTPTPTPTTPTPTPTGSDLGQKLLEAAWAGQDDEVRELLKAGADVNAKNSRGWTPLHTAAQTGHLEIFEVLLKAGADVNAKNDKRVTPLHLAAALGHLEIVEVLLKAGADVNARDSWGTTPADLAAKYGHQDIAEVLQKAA
Experimental: as §1

[3] = molecular target: T3, Switchdrug DARPin 18-3; assay: as above
T3 construct: also called 2-in-1 DARPin18 in Format 3
T3 chain: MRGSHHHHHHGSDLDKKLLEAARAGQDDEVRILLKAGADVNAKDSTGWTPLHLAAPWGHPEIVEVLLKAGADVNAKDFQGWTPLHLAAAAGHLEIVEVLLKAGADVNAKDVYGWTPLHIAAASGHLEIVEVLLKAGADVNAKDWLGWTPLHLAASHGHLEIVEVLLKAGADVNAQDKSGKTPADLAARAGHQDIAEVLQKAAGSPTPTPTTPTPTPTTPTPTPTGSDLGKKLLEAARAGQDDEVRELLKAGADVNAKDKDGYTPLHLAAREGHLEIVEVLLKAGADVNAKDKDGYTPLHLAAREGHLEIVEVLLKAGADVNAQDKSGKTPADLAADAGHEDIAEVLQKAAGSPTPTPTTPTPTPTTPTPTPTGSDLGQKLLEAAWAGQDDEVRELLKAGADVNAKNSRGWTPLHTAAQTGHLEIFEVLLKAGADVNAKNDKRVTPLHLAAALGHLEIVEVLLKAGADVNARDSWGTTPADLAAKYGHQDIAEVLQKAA
Experimental: as §1

[4] = molecular target: T4, Switchdrug DARPin 17-1; assay: ELISA: 10 nM Switchdrug DARPin 17-1 pre-incubated with titrated soluble VEGF; read-out is the construct bound to plate-bound biotinylated scCD3εγ (release of the α-CD3 binder)
T4 construct: also called 2-in-1 DARPin17 in Format 1
T4 chain: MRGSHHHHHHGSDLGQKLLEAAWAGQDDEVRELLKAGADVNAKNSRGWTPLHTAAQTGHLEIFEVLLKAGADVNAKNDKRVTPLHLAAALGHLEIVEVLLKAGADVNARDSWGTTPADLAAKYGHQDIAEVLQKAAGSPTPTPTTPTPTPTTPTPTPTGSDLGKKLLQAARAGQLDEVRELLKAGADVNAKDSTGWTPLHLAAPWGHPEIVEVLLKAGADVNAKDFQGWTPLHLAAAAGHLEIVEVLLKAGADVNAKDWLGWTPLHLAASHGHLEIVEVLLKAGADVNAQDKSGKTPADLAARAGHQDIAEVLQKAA
Experimental: (§2) Switchdrug DARPins that were mixed with VEGF were titrated and pre-incubated for 1 day with VEGF in order to establish the thermodynamic equilibrium. These samples were loaded on the ELISA plate, incubated and washed, before the bound Switchdrug DARPins were detected as described above.

[5] = molecular target: T2, Switchdrug DARPin 17-3; assay: ELISA: 10 nM Switchdrug DARPin 17-3 pre-incubated with titrated soluble VEGF; read-out is the construct bound to plate-bound biotinylated scCD3εγ (release of the α-CD3 binder)
Experimental: as §2

[6] = molecular target: T3, Switchdrug DARPin 18-3; assay: ELISA: 100 nM Switchdrug DARPin 18-3 pre-incubated with titrated soluble VEGF; read-out is the construct bound to plate-bound biotinylated scCD3εγ (release of the α-CD3 binder)
Experimental: as §2

[7] = molecular target: T5, scCD3εγ; assay: ELISA on scCD3εγ, DARPin titrated
T5 chain 1: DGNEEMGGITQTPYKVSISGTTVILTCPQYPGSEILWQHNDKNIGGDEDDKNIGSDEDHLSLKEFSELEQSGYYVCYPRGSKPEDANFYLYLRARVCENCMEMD
T5 chain 2: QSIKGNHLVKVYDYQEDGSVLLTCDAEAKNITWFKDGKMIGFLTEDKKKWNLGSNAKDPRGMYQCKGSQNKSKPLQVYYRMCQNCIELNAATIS

[8] = molecular target: T5, scCD3εγ; assay: SPR, bio-scCD3εγ coated on NAD chip, DARPin 333.33-4.11 nM
[9] = molecular target: T5, scCD3εγ; assay: ELISA: plate-bound biotinylated scCD3εγ, His-tagged α-CD3 mono-DARPin titrated, no VEGF
[10] = molecular target: T5, scCD3εγ; assay: as above
[11] = molecular target: T5, scCD3εγ; assay: as above
[12] = molecular target: T5, scCD3εγ; assay: as above
[13] = molecular target: T5, scCD3εγ; assay: as above
[14] = molecular target: T5, scCD3εγ; assay: as above
[15] = molecular target: T5, scCD3εγ; assay: as above
[16] = molecular target: T5, scCD3εγ; assay: ELISA: plate-bound biotinylated scCD3εγ, His-tagged α-CD3 mono-DARPin titrated in presence of 100 nM soluble VEGF
Experimental: (§3) ELISA assays offer an easy and qualitative way to determine the binding of the Switchdrug DARPin constructs to a target. The difference in binding of Switchdrug DARPins to scCD3εγ in presence and absence of VEGF was assessed. […] Said Switchdrug DARPins were mixed with a constant concentration of VEGF (100 nM) and tested for binding to scCD3εγ. […] The difference in EC50 of a construct in presence and absence of VEGF can be referred to as the “activation window”.
as §2

[17] = molecular target: T5, scCD3εγ; assay: as above
Experimental: as §3, §2

[18] = molecular target: B1; assay: SPR (ProteOn), VEGF165 immobilized, single-trace 50 nM, 25 C
[19] = molecular target: B1; assay: ELISA: plate-bound biotinylated VEGF165, His-tagged binder titrated, anti-His-HRP detection
Experimental: Binding is detected via an HRP-labeled anti-His antibody.
(§4) Then a titration of the Switchdrug DARPins was applied, incubated and washed. Detection of bound his-tagged constructs was done by anti-RGS(his)4 mAb HRP conjugate, and detected by TMB substrate.

[20] = molecular target: B1; assay: cell-based or functional assay
[21] = molecular target: T5, scCD3εγ; assay: ELISA, biotinylated scCD3εγ on neutravidin plate, with against without 100 nM VEGF
Experimental: (§5) The difference in binding of Switchdrug DARPins to scCD3εγ in presence and absence of VEGF was assessed. […] Said Switchdrug DARPins were mixed with a constant concentration of VEGF (100 nM) and tested for binding to scCD3εγ. […] The difference in EC50 of a construct in presence and absence of VEGF can be referred to as the “activation window”.
as §2

[22] = molecular target: T5, scCD3εγ; assay: ELISA: plate-bound biotinylated scCD3εγ, His-tagged construct titrated in presence of 100 nM soluble VEGF
Experimental: as §5, §2

[23] = molecular target: B1; assay: ELISA: plate-bound biotinylated VEGF165, His-tagged construct titrated, no soluble VEGF, anti-His-HRP detection
Experimental: as §4

B1
EC50 (read off the curve) [1]: ~30 nM
EC50 (read off the curve) [2]: ~30 nM
EC50 (read off the curve) [3]: ~70 nM
EC50 (read off the curve) [4]: ~4 nM
EC50 (read off the curve) [5]: ~7 nM
EC50 (read off the curve) [6]: ~40 nM

B2: CD3-specific binding domain (SEQ ID NO: 3) (designed binder)
chain: DLGQKLLEAAWAGQDDEVRELLKAGADVNAKNSRGWTPLHTAAQTGHLEIFEVLLKAGADVNAKNDKRVTPLHLAAALGHLEIVEVLLKAGADVNARDSWGTTPADLAAKYGHQDIAEVLQKAA
modifications: biotinylated when used as immobilized SPR ligand (site not stated)
notes: also called α-CD3 DARPin
EC50 (read off the curve) [7]: ~3 nM
Kd [8]: 2.03 nM
EC50 (read off the curve) [9]: ~5 nM
EC50 (read off the curve) [10]: ~5 nM
EC50 (read off the curve) [11]: ~3 nM
EC50 (read off the curve) [12]: ~3 nM
EC50 (read off the curve) [13]: ~3 nM
EC50 (read off the curve) [14]: ~3 nM
EC50 (read off the curve) [15]: ~4 nM
EC50 (read off the curve) [16]: ~4 nM
EC50 (read off the curve) [17]: ~4 nM

B3: VEGF-binder (SEQ ID NO: 1) (designed binder)
chain: DLDKKLLEAARAGQDDEVRILLKAGADVNAKDSTGWTPLHLAAPWGHPEIVEVLLKAGADVNAKDFQGWTPLHLAAAAGHLEIVEVLLKAGADVNAQDKSGKTPADLAADAGHEDIAEVLQKAA
notes: said to be disclosed in WO 2016/156596
Kd [18]: 0.21 nM
koff [18]: 0.00014 s⁻¹
kon [18]: 646000 M⁻¹ s⁻¹
EC50 (read off the curve) [19]: ~0.5 nM

B4: Switchdrug DARPin 17-B (designed binder)
chain: MRGSHHHHHHGSDLGKKLLQAARAGQLDEVRELLKAGADVNAKDSTGWTPLHLAAPWGHPEIVEVLLKAGADVNAKDFQGWTPLHLAAAAGHLEIVEVLLKAGADVNAKDWLGWTPLHLAASHGHLEIVEVLLKAGADVNAQDKSGKTPADLAARAGHQDIAEVLQKAAGSPTPTPTTPTPTPTTPTPTPTGSDLGKKLLQAARAGQLDEVRELLKAGADVNAKDQYGRTPLHLAAIKGHLEIVEVLLKAGADVNAKDSLGYTPLHLAAVEGPLEIVEVLLKAGADVNAKDAYGQTPLHIAAAWGHLEIVEVLLKAVADVNAQDKSGKTPADLAARAGHQDIAEVLQKAAGSPTPTPTTPTPTPTTPTPTPTGSDLGQKLLEAAWAGQDDEVRELLKAGADVNAKNSRGWTPLHTAAQTGHLEIFEVLLKAGADVNAKNDKRVTPLHLAAALGHLEIVEVLLKAGADVNARDSWGTTPADLAAKYGHQDIAEVLQKAA
notes: also called 2-in-1 DARPin17 in Format B
T-cell activation (CD69+ cells of CD8+ T cells, Molm-13 target cells): activation window [20]: 75 fold
activation window (difference in EC50 in presence and absence of VEGF) [21]: ~178 fold
EC50 (read off the curve) [22]: ~2 nM
EC50 (read off the curve) [23]: ~30 nM
